Assay [1] concerns the target PTH (1-34)-antibody of the enzyme immunoassay EIAS(h)-6101 (Peninsula Laboratories, Inc.). Put plainly: competitive EIA against biotinylated peptide for the PTH(1-34) antibody.
Assay [2] deals with T1, µ opioid receptor (bovine caudate nucleus synaptic membrane fraction) (bovine, UniProt P79350 1-401).
T1 construct: whole, on cells; Native receptor in brain membranes, not on intact cells; The tissue may hold other opioid receptors; also called µ-receptor; µ opioid receptors
T1 sequence (P79350 whole entry): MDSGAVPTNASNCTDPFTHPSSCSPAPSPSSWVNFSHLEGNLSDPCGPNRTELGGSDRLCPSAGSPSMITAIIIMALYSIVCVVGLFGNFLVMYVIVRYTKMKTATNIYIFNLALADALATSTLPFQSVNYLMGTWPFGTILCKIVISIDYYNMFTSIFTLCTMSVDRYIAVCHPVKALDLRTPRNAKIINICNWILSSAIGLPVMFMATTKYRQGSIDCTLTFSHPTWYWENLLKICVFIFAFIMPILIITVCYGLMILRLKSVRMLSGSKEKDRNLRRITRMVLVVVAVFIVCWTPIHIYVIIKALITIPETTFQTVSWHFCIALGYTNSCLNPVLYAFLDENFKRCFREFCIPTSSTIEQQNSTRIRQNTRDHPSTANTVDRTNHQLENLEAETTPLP
In words: displacement of 1 nM [3H]DAMGO, bovine caudate synaptic membranes; column Time 18 hours.

Assay [3] concerns the target T1, µ opioid receptor (bovine caudate …). In words: displacement of 1 nM [3H]DAMGO, bovine caudate synaptic membranes; column Time 0 hours; mean ± SD. On the procedure: (§1) Affinities for […] opioid receptor were determined using [³H](D-Ala²,N-Me-Phe⁴, Gly-ol⁵) Enkephalin (DAMGO) (1 nM) as described by Christensen, 1993, Pharmacol. Toxicol. 73:344-345. In short: Bovine brains were placed on ice within minutes after the slaughter. The caudate nuclei were dissected and homogenized in 20 vol. of 0.32 M sucrose. The homogenate was centrifuged at 2000 g for 10 min. The pellet was re-suspended in 10 vol. of 50 mM Tris-HCl buffer 7.4 and stored at −20° C. until use. The synaptic membrane fraction was incubated with 1 nM of [3H]DAMGO in the presence of various concentrations of test ligand. Non-specifically bound [3H]-DAMGO was established using 1 μM naloxone. Following 15 min. incubation at 36° C. samples were filtered through Whatman GF/C filters and washed with buffer. Radioactivity was determined using conventional techniques.

Assay [4] shares this target. In words: displacement of 1 nM [3H]DAMGO, bovine caudate synaptic membranes; column Time 0 hours. On the procedure: as §1

For six molecules, Relative recovery % and IC50 results are on record in patent US20080227954A1 (ZEALAND PHARMA A S, published 2008).

As a reminder, the IC50 is the concentration that gives 50% inhibition. A low value points to greater potency.

Where no end group is shown, it is not given here.

In turn, SVSEIQLMHNLGKHLNSMERVEWLRKKLQDVHNF-OH [hPTH (1-34) (PTH(1-34)(Human)-OH)] returned a Relative recovery % in assay [1] of 90.8%.

As to H-KKKKKKSVSEIQLMHNLGKHLNSMERVEWLRKKLQDVHNF-OH [H-K6-PTH(1-34)-OH (Lys6-PTH(1-34)(Human)-OH)], the Relative recovery % in assay [1] was 79.1%.

As to H-YGGFLKKKKKK-OH (also called H-Leu-enkephalin-Lys6) [Leu-Enkephalin-(Lys)6-OH (H-Tyr-Gly-Gly-Phe-Leu-Lys6-OH)], the values for the IC50 in assay [2] and in assay [3] were 32 nM and 17 nM, respectively. Molecule H-SVSEIQLMHNLGKHLNSMERVEWLRKKLQDVHNFKKKKKK-OH [H-hPTH(1-34)-K6-OH (PTH(1-34)(Human)-Lys6-OH)] had a Relative recovery % in assay [1] of 61.8%. Regarding YGGFLKEKEKE-OH [Leu-Enkephalin-(Lys-Glu)3-OH], the IC50 in assay [2] is 900 nM; in assay [3] it was 450 nM.

As to H-YGGFLEEEEEE-OH [Leu-Enkephalin-(Glu)6-OH (H-Tyr-Gly-Gly-Phe-Leu-Glu6-OH)], the IC50 in assay [4] is 10 µM; in assay [2] it was 5000 nM.
